Assay results from publication PMC3314109.

Biological target: the mutants of both surface loops (39-loop and 60-loop mutants of FXa)
Experiment: prothrombinase activity titration

Kd: 1 to 2 nM
Substance: factor Va (thrombin activated factor V) (from UniProt P12259 29-737; P12259 1574-2224) (complex)
